Details in all cases: protein: recombinant; tags: N-terminal His6 removed by TEV
In data set [1] the target is T1, hTUT4 CCHC-ZnF2 (Homo sapiens, UniProt Q5TAX3 1293-1321).
T1 chain: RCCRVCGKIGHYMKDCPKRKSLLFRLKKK
Put plainly: BLI; NMR: 10 mM Tris-HCl pH 7.4, 100 mM NaCl, 0.5 mM TCEP, 10 uM ZnCl2, 25 C, 50 uM protein; BLI: streptavidin sensors, 1-8 uM protein, buffer not in material.

Data set [2] concerns the target T2, hTUT4 CCHC-ZnF2-3 (Homo sapiens, UniProt Q5TAX3 1293-1382).
T2 sequence: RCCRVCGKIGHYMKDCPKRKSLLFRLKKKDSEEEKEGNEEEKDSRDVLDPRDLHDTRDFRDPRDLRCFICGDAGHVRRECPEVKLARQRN
Put plainly: BLI; affinity very similar to ZnF2 (value in figure only); NMR: 10 mM Tris-HCl pH 7.4, 100 mM NaCl, 0.5 mM TCEP, 10 uM ZnCl2, 25 C, 50 uM protein; BLI: streptavidin sensors, 1-8 uM protein, buffer not in material.

Data set [3] has as its target T1, hTUT4 CCHC-ZnF2. Put plainly: NMR titration (15N HSQC CSP); 10 uM ZnCl2; NMR: 10 mM Tris-HCl pH 7.4, 100 mM NaCl, 0.5 mM TCEP, 10 uM ZnCl2, 25 C, 50 uM protein; BLI: streptavidin sensors, 1-8 uM protein, buffer not in material.
Data set [4] concerns the target T1, hTUT4 CCHC-ZnF2. The data set is described as follows: NMR titration (15N HSQC CSP); 10 uM ZnCl2; protein:RNA 1:10; NMR: 10 mM Tris-HCl pH 7.4, 100 mM NaCl, 0.5 mM TCEP, 10 uM ZnCl2, 25 C, 50 uM protein; BLI: streptavidin sensors, 1-8 uM protein, buffer not in material.
Data set [5] addresses T2, hTUT4 CCHC-ZnF2-3. The data set is described as follows: BLI; affinity very similar to ZnF2; ~2-fold slower association and slightly longer lifetime (value in figure only); NMR: 10 mM Tris-HCl pH 7.4, 100 mM NaCl, 0.5 mM TCEP, 10 uM ZnCl2, 25 C, 50 uM protein; BLI: streptavidin sensors, 1-8 uM protein, buffer not in material.

For UUUGGA (ssRNA) [UUUGGA RNA (short RNA with SIA sequence)], in the data set with hTUT4 CCHC-ZnF2 [1], the Kd was around 4 µM. The binding result in the data set with hTUT4 CCHC-ZnF2-3 [2] is reported as “binds”.
As to CGGA (ssRNA) [CGGA RNA], the Kd with hTUT4 CCHC-ZnF2 [3] was determined as 3.7 ± 0.4 µM.
Regarding UUUU (ssRNA) [UUUU RNA], the binding result with hTUT4 CCHC-ZnF2 [4] was “no binding”.
For the molecule UGAGGUAGUAGUUUGUGCUGUU (ssRNA) [Let-7i miRNA], in the data set with hTUT4 CCHC-ZnF2 [1], the Kd was around 4 µM. The binding result with hTUT4 CCHC-ZnF2-3 [5] is recorded as “binds”.

The values above are taken from PMC8782169, “The distinct RNA-interaction modes of a small ZnF domain underlay TUT4(7) diverse action in miRNA regulation”.
